In article PMC509406, “Emerin Caps the Pointed End of Actin Filaments: Evidence for an Actin Cortical Network at the Nuclear Inner Membrane” (PLoS Biology, 2004):
Where “and” joins values, the source holds several entries; their conditions need not be identical. Equal values may be shown once.

Key:
[1] = biological target: T1, rabbit actin (Cytoskeleton, catalog #AKL95) (rabbit, UniProt P68135 1-377); assay: pyrene–actin polymerization rate against emerin concentration; 2 μM rabbit actin with 5% pyrene–actin; emerin 0.1 to 4.4 μM added just prior to polymerization; R/cR; equilibrium affinity from activity; settings: both partners purified
[2] = biological target: T2, purified actin (F-actin or G-actin; species not told for these experiments) ( (purified chicken and rabbit …, UniProt P68135 1-377); assay: F-actin column (affinity determination); F-actin column used to determine the affinity of F-actin for emerin; n = 8; settings: both partners purified
[3] = biological target: T1, rabbit actin (Cytoskeleton, catalog …); assay: cell-based or functional assay
[4] = biological target: T1, rabbit actin (Cytoskeleton, catalog …); assay: depolymerization of actin filaments grown from gelsolin–actin seeds against emerin concentration; filaments from 2 μM actin and gelsolin–actin seeds diluted 10-fold to 0.2 μM actin with 0–2 μM emerin 1–222; apparent Kd; n = 6; settings: both partners purified
[5] = biological target: T2, purified actin (F-actin or G-actin; …); assay: co-sedimentation; actin polymerized in KMEI buffer, incubated 30 min with recombinant emerin (4 μM in text and methods, 2 μM in the legend), pelleted at 100,000g for 1 h; SDS-PAGE, Coomassie blue; settings: both partners purified
[6] = biological target: T1, rabbit actin (Cytoskeleton, catalog …); assay: pointed-end elongation of gelsolin–actin seeds (pyrene–actin) against emerin concentration; gelsolin–actin dimers (10 nM), 2 μM actin, 0 to 2 μM wild-type emerin 1–222; apparent Kd from the reduction of the rate; n = 12; settings: both partners purified

Kd [1] [nM] | Kd [2] | critical concentration for pointed-end growth (5 nM gelsolin–actin seeds, 625 nM emerin, 16 h at room temperature) [3] [fold] | rate of depolymerization of filaments grown from gelsolin–actin seeds, diluted to 0.2 μM actin, emerin 0–2 μM [3] [fold] | rate of depolymerization of preformed filaments capped at the barbed end with capping protein (CapZ), diluted into 0.2 μM actin (data not shown) [3] [fold] | rate of pyrene–actin polymerization (R/cR), emerin 0.1 to 4.4 μM, 2 μM actin [3] [fold] | Kd [4] | stoichiometry N [5] | Kd [6] | rate of pyrene–actin polymerization, 1 μM mutant, 2.0 μM G-actin, against wild-type emerin [3] | Binder
420 | 480 nM and 300 to 500 nM | 2.3 to 2.7 | ≤ 8 | 10 | 4 | 380 nM and 350 to 450 nM | ~300 actin monomers per emerin molecule | 430 nM and 300 to 500 nM | – | wild-type emerin (residues 1–222), the full nucleoplasmic domain (domain or fragment, emerin, residues 1–222, the entire nucleoplasmic domain, lacking the transmembrane domain; also called emr; WT; source: expressed in bacteria and purified) MDNYADLSDTELTTLLRRYNIPHGPVVGSTRRLYEKKIFEYETQRRRLSPPSSSAASSYSFSDLNSTRGDADMYDLPKKEDALLYQSKGYNDDYYEESYFTTRTYGEPESAGPSRAVRQSVTSFPDADAFHHQVHDDDLLSSSEEECKDRERPMYGRDSAYQSITHYRPVSASRSSLDLSYYPTSSSTSFMSSSSSSSSWLTRRAIRPENRAPGAGLGQDRQ
– | – | – | – | – | – | – | – | – | ~50 % of wild-type emerin | emerin (residues 1–222) alanine substitution mutant m196 (domain or fragment) MDNYADLSDTELTTLLRRYNIPHGPVVGSTRRLYEKKIFEYETQRRRLSPPSSSAASSYSFSDLNSTRGDADMYDLPKKEDALLYQSKGYNDDYYEESYFTTRTYGEPESAGPSRAVRQSVTSFPDADAFHHQVHDDDLLSSSEEECKDRERPMYGRDSAYQSITHYRPVSASRSSLDLSYYPTSSSTSFMSSSSAASSWLTRRAIRPENRAPGAGLGQDRQ
